# Reference: patent US20250009856A1, “METHODS FOR TREATING RESPIRATORY DISEASES” (MUCPharm Pty Ltd, priority 2021, published 2025)
# B1: DNASE: enzyme hydrolysing phosphodiester bonds of dsDNA; marketed under the brand name Pulmozyme for cystic fibrosis sputa (protein, UniProt P24855 23-282, looked up)
# Deoxyribonuclease-1: LKIAAFNIQTFGETKMSNATLVSYIVQILSRYDIALVQEVRDSHLTAVGKLLDNLNQDAPDTYHYVVSEPLGRNSYKERYLFVYRPDQVSAVDSYYYDDGCEPCGNDTFNREPAIVRFFSRFTEVREFAIVPLHAAPGDAVAEIDALYDVYLDVQEKWGLEDVMLMGDFNAGCSYVRPSQWSSIRLWTSPTFQWLIPDSADTTATPTHCAYDRIVVAGMLLRGAVVPDSALPFNFQAAYGLSDQLAQAISDHYPVEVMLK
# Tests used:
# [1] = test system: New Zealand white rabbits; assay: Pilot study: safety of inhaled bromelain in rabbits; settings: rabbit, in vivo
# Description: In this pilot study. […] Ten minutes waiting period was kept between Salbutamol administration and treatment. Each rabbit received one cumulative dose of bromelain using a nebulizer and a v-gel supraglottal airway device as below. The pilot study was divided into 2 experiments as follows:
# Experiment 1: Two rabbits were used in the first bromelain aerosol administration experiment. The first rabbit received an aerosol of physiological saline solution (0.9% NaCl), the second rabbit received aerosolized bromelain 0.1 mg/mL (accumulative dose of 0.19 mg in 1.9 mL saline), over 16 min inhalation period (Table 1).
# Experiment 2: Three rabbits were used in the second bromelain aerosol administration experiment. The first rabbit received an aerosol of physiological saline solution (0.9% NaCl), the second one received aerosolized low dose of bromelain 0.01 mg/mL (accumulative dose of 0.025 mg bromelain in 2.5 mL saline), the third rabbit received aerosolized high dose of bromelain 0.1 mg/mL (accumulative dose of 0.25 mg bromelain in 2.5 mL saline), over 11 min inhalation period.
# Rabbits were euthanized 48 h post-treatment using IV Sodium pentobarbitone 100 mg/kg while animals were sedated using isoflurane.
# [2] = Sputum flow speed after mixing with BromAc, DNase and combinations; settings: BR 250 ug/ml, NAC 20 mg/ml where present, 1 hour, 37 deg C
# Experimental: (§1) Artificial sputa was prepared following methodology with ingredients as in earlier experiments. To 1.5 ml of artificial sputa in a vial was added 0.5 ml of reagent containing the required bromelain, NAC, DNase and their combinations. Control vials included 0.5 ml of PBS only. The mixture was vortex mixed and incubated in a shaker water bath at 37 deg C. At the end of 1 hour, the samples were retrieved, vortex mixed and equilibrated to ambient room temperature before measuring dynamic viscosity and pipette flow.
# (§2) Dynamic viscosity was determined using the capillary tube method as in earlier experiments, whilst the pipette flow was evaluated using a 0.5 ml pipette inclined at 60 deg angle. The pipette flow was calculated as shown below.
# Pipette flow (€)=0.45 ml sputa/time to empty (sec).
# [3] = Dynamic viscosity after mixing with BromAc, DNase and combinations; settings: for Dynamic viscosity (¥): heads: BR(25 ug/ml), NAC(20 mg/ml), BR(250 ug/ml) + NAC(20 ug/ml)
# Experimental: as §1, §2
Molecule,"activities, food and drink intake, breathing [1]",Sputum flow speed (€) ([2]; plus DNASE 2.0 ug/ml),Sputum flow speed (€) ([2]; plus DNASE 4.0 ug/ml),Sputum flow speed (€) ([2]; plus DNASE 6.0 ug/ml),Sputum flow speed (€) ([2]; plus DNASE 8.0 ug/ml),Sputum flow speed (€) ([2]; plus DNASE 20 ug/ml),Sputum flow speed (€) ([2]; plus DNASE 10. ug/ml),effect on dynamic viscosity compared with other treatment groups ([3]; DNase 2-20 μg/ml),Dynamic viscosity (¥) ([3]; plus DNASE 2.0 ug/ml),Dynamic viscosity (¥) ([3]; plus DNASE 4.0 ug/ml),Dynamic viscosity (¥) ([3]; plus DNASE 6.0 ug/ml),Dynamic viscosity (¥) ([3]; plus DNASE 8.0 ug/ml),Dynamic viscosity (¥) ([3]; plus DNASE 20 ug/ml),Dynamic viscosity (¥) ([3]; plus DNASE 10. ug/ml)
Bromelain,normal,,,,,,,,,,,,,
B1,,0.0627 mL/s,0.075 mL/s,0.082 mL/s,0.09 mL/s,0.1125 mL/s,0.1044 mL/s,less compared to all the other treatment groups,1.64 cSt,1.60 cSt,1.57 cSt,1.514 cSt,1.379 cSt,1.472 cSt
